Measured values as given in US20080020978A1 (Amgen, published 2008).
Square brackets hold non-standard residues; d marks the D form. Oic = O=C(O)[C@@H]1C[C@@H]2CCCC[C@@H]2N1; Igl = N[C@H](C(=O)O)C1Cc2ccccc2C1; hArg = N=C(N)NCCCC[C@H](N)C(=O)O; Cit = NC(=O)NCCC[C@H](N)C(=O)O; Nle = CCCC[C@H](N)C(=O)O

B1: SEQ ID NO 942 (peptide)
peptide: Ac-WVTH[hArg]LEGLLK[Cit]SGGVV[hArg]KNFVPTDVG[Oic]FAF-NH2
modifications: lactam (positions not given here); not fully specified; printed as Ac-WVTH[hArg]LEGLLK[Cit]SGGVV[hArg]KNFVPTDVG[Oic]FAF-NH2
B2: PEG-peptide of SEQ ID NO 929 (peptide)
peptide: WVTHXLAGLLSXSGGVVXKNFVPTDVGPXAF
modifications: Ac-WVTH[Cit]LAGLLS[Cit]SGGVV[hArg]KNFVPTDVGP[Bip]AF-NH2; PEG-conjugated (Table 2C: in most cases at Lys^25)
B3: SEQ ID NO 940 (peptide)
peptide: Ac-WVTH[Cit]LAGLLS[Cit]SGGV[Nle]RKNFVPTDVGPFAF-NH2
SMILES: CCCC[C@H](NC(=O)[C@@H](NC(=O)CNC(=O)CNC(=O)[C@H](CO)NC(=O)[C@H](CCCNC(N)=O)NC(=O)[C@H](CO)NC(=O)[C@H](CC(C)C)NC(=O)[C@H](CC(C)C)NC(=O)CNC(=O)[C@H](C)NC(=O)[C@H](CC(C)C)NC(=O)[C@H](CCCNC(N)=O)NC(=O)[C@H](Cc1c[nH]cn1)NC(=O)[C@@H](NC(=O)[C@@H](NC(=O)[C@H](Cc1c[nH]c2ccccc12)NC(C)=O)C(C)C)[C@@H](C)O)C(C)C)C(=O)N[C@@H](CCCNC(=N)N)C(=O)N[C@@H](CCCCN)C(=O)N[C@@H](CC(N)=O)C(=O)N[C@@H](Cc1ccccc1)C(=O)N[C@H](C(=O)N1CCC[C@H]1C(=O)N[C@H](C(=O)N[C@@H](CC(=O)O)C(=O)N[C@H](C(=O)NCC(=O)N1CCC[C@H]1C(=O)N[C@@H](Cc1ccccc1)C(=O)N[C@@H](C)C(=O)N[C@@H](Cc1ccccc1)C(N)=O)C(C)C)[C@@H](C)O)C(C)C

target: CGRP1 receptor (CRLR/RAMP1 complex) of human neuroblastoma SK-N-MC cells (human, UniProt Q16602 23-461; O60894 27-148); assay: cell-based or functional assay
Sequence (Q16602 23-461, chain 1 of 2): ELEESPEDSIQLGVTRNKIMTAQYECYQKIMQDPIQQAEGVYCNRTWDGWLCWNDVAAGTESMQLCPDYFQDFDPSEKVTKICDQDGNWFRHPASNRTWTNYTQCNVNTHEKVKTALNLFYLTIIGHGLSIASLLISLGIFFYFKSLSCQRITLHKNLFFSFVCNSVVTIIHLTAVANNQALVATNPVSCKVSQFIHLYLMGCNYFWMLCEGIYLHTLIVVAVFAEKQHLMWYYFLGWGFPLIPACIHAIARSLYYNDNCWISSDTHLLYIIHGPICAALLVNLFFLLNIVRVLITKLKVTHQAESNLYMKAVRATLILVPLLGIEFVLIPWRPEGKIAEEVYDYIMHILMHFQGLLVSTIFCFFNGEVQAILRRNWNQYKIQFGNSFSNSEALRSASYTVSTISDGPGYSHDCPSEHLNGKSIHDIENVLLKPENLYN
Sequence (O60894 27-148, chain 2 of 2): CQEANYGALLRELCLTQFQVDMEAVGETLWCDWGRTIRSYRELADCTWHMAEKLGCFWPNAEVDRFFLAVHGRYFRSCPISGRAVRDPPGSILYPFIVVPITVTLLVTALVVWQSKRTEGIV

Binder | Peptide IC50 | PEG-peptide IC50
Ac-WVTH[Cit]LAGLLS[Cit]SGGVV[hArg]KNFVPTDVGP[Igl]AF-NH2 [SEQ ID NO 930] | 4.58 nM | 
Ac-WVTH[Cit]LAGLLS[Cit]SGGVV[hArg]KNFVPTDVGP[Igl]AF-NH2 (also: PEG-conjugated, in most cases at Lys25) [PEG-peptide of SEQ ID NO 930] |  | 126 nM
B1 | 0.83 nM | 
B2 |  | 5.58 nM
WVTHXLAGLLSXSGGVVXKNFVPTDVGPFAF (Ac-WVTH[Cit]LAGLLS[Cit]SGGVV[Cit]KNFVPTDVGPFAF-NH2) [SEQ ID NO 937] | 2.87 nM | 
WVTHXLAGLLSXSGGVVXKNFVXTDVGXFAF (Ac-WVTH[Cit]LAGLLS[Cit]SGGVV[hArg]KNFV[Oic]TDVG[Oic]FAF-NH2) [SEQ ID NO 932] | 1.31 nM | 
WVTHXLAGLLSXSGGVVXKNFVPTDVGXXAF (Ac-WVTH[Cit]LAGLLS[Cit]SGGVV[hArg]KNFVPTDVG[Oic][1-Nal]AF-NH2) [SEQ ID NO 933] | 0.88 nM | 
WVTHXLAGLLSXSGGVVXKNFVPTDVGPFAF (Ac-WVTH[Cit]LAGLLS[hArg]SGGVV[BhArg]KNFVPTDVGPFAF-NH2) [SEQ ID NO 936] | 2.41 nM | 
WVTHXLAGLLSXSGGVVXKNFVPTDVGPFAF (Ac-WVTH[Cit]LAGLLS[hArg]SGGVV[Guf]KNFVPTDVGPFAF-NH2) [SEQ ID NO 935] | 2.37 nM | 
WVTHXLAGLLSXSGGVVXKNFVPTDVGXXAF (Ac-WVTH[Cit]LAGLLS[Cit]SGGVV[hArg]KNFVPTDVG[Oic][2-Nal]AF-NH2) [SEQ ID NO 934] | 1.65 nM | 
WVTHXLAGLLSXSGGVVXKNFVPTDVGPFAF (Ac-WVTH[Cit]LAGLLS[Cit]SGGVV[3G-Dpr]KNFVPTDVGPFAF-NH2) [SEQ ID NO 938] | 1.39 nM | 
WVTHXLAGLLSXSGGVVXKNFVPTDVGPFAF (Ac-WVTH[Cit]LAGLLS[Cit]SGGVV[hArg](30 KPEGald)NFVPTDVGPFAF-NH2) [PEG-peptide of SEQ ID NO 941] |  | 7.76 nM
B3 | 1.85 nM | 
Ac-WVTH[Cit]LAGELS[Cit]KGGVV[hArg]KNFVPTDVG[Oic]FAF-NH2 [SEQ ID NO 943] | 1.45 nM | 
